Consider five molecules from paper PMC8235110, “Effective Tumor Targeting by EphA2-Agonist-Biotin-Streptavidin Conjugates” (Molecules, 2021).

The term IC50 denotes the concentration needed to halve the response being measured. Read a high IC50 as weaker potency. In general, Kd refers to the constant that tells how readily two partners part at equilibrium. A higher Kd goes with weaker binding.

Entries after “also recorded” stand apart in the source; their conditions may differ. Square brackets hold non-standard residues; d marks the D form. Peptide text beside a SMILES is read from it. * marks the point of attachment. 4‑CH3‑Tyr = 4-CH3-Tyr: 4-methyl-tyrosine, a non-natural residue; 2Benzofuroyl(3-Me,6,7-diOMe) = COc1ccc2c(C)c(C(=O)*)oc2c1OC; Phe(4-Cl) = N[C@@H](Cc1ccc(Cl)cc1)C(=O)O; Hyp = O=C(O)[C@@H]1C[C@@H](O)CN1 Bounds are passed on as bounds.

For assay [1], the target named is T1, purified EphA2-LBD (Homo sapiens, UniProt P29317).
T1 construct: made in house
The assay is described as follows: reverse isothermal titration calorimetry (ITC). The conditions noted are these: reverse ITC titration with purified EphA2-LBD. It is filed as binding.

For assay [2], the target named is T2, EphA2-LBD (6xHis-EphA2 ligand-binding domain) (Homo sapiens, UniProt P29317).
T2 construct: made in house
As to the kind of experiment: DELFIA displacement of biotinylated EphA2-binding reference peptide. The conditions noted are these: DELFIA dose-response; listed as scrambled version of 135H11.

For assay [3], the target named is 6xHis-EphA2 ligand-binding domain. As to the kind of experiment: DELFIA displacement assay; earlier-generation biotinylated EphA2-binding reference peptide captured on streptavidin-coated 96-well plates; 6xHis-EphA2-LBD and Europium-conjugated anti-6xHis antibody added together with the test agent at various doses; residual fluorescence read after washing.
For assay [4] the target is unchanged. The assay is described as follows: ITC; reverse ITC titration with purified EphA2-LBD. For orientation: Isothermal titration calorimetry measures the heat released or taken up as one component is titrated into another.
For assay [5], the system named is EphA2 in BxPC3 cells. As to the kind of experiment: EphA2 receptor degradation, Western blot, BxPC3. The format is cell-based, human. To be noted: 1 h; 147B5 50 nM to 200 nM with streptavidin 50 nM (n = 1 to 4); scrambled 200 nM; 135H12 50 and 200 nM monomer concentration; ephrinA1-Fc 22 nM monomer (1 μg/mL); total EphA2, anti-EphA2 blot, relative to DMSO, duplicate. From the text: (Table 1). […] In these cell-based assays, receptor activation and degradation could be simply monitored by detecting the ability of each agent to reduce EphA2 expression levels over time, after exposure of cells to test ligands. […] Negative controls were DMSO-treated cells or cells treated with the (scrambled 147B5)4-streptavidine complex (Figure 3).
For the control scrambled agent, we tested it at its maximal 4:1 molar ratio with streptavidin. For these experiments we treated cells with increasing concentrations of 147B5 (from 50 nM to 200 nM) in the absence or presence of streptavidin (50 nM). […]
Figure 4 Effect of 147B5 and its complexes with streptavidin at various ratios on EphA2 receptor degradation. […] (b) Densitometry analysis based on duplicate measurements of band intensities relative to the bands of DMSO-treated cells. * p ≤ 0.05, as determined by a one-way analysis of variance using Dunnett post-test analysis. […]
Cells were lysed with cell lysis buffer (20 mM Tris, pH 7.4, 120 mM NaCl, 1% Triton X-100, 0.5% sodium deoxycholate, 0.1% SDS, 1% IGEPAL, 5 mM EDTA), supplemented with EDTA-free Protease Inhibitor Cocktail and PhosStop (Sigma Aldrich) for 15 min on ice. […] Subsequently, Clarity Western ECL solution (BIO-RAD) was added to the blots prior to being imaged on a FluorChem (ProteinSimple) and analyzed with AlphaView software.

The test system of assay [6] is EphA2. The conditions noted are these: cited from earlier work.
The subject of assay [7] is EphA2 in MDA-MB-231 cells. The assay is described as follows: EphA2 receptor degradation, Western blot, MDA-MB-231. It is filed as cell-based, human. The conditions noted are these: 1 h; 147B5 50 nM to 200 nM with streptavidin 50 nM (n = 1 to 4); scrambled 200 nM; 135H12 50 and 200 nM monomer concentration; ephrinA1-Fc 22 nM monomer (1 μg/mL); total EphA2, anti-EphA2 blot, relative to DMSO, duplicate. (Immunoblotting shows a protein as a band on a membrane.)

T1 sequence (P29317 28-206 limits assumed): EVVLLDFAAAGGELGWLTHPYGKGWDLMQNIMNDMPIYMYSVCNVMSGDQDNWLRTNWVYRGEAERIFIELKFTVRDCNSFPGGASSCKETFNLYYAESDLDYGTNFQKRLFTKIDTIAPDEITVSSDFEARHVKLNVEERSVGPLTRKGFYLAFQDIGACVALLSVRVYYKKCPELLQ
Sequence of 6xHis-EphA2 ligand-binding domain (P29317 whole entry, the tested form may be a part): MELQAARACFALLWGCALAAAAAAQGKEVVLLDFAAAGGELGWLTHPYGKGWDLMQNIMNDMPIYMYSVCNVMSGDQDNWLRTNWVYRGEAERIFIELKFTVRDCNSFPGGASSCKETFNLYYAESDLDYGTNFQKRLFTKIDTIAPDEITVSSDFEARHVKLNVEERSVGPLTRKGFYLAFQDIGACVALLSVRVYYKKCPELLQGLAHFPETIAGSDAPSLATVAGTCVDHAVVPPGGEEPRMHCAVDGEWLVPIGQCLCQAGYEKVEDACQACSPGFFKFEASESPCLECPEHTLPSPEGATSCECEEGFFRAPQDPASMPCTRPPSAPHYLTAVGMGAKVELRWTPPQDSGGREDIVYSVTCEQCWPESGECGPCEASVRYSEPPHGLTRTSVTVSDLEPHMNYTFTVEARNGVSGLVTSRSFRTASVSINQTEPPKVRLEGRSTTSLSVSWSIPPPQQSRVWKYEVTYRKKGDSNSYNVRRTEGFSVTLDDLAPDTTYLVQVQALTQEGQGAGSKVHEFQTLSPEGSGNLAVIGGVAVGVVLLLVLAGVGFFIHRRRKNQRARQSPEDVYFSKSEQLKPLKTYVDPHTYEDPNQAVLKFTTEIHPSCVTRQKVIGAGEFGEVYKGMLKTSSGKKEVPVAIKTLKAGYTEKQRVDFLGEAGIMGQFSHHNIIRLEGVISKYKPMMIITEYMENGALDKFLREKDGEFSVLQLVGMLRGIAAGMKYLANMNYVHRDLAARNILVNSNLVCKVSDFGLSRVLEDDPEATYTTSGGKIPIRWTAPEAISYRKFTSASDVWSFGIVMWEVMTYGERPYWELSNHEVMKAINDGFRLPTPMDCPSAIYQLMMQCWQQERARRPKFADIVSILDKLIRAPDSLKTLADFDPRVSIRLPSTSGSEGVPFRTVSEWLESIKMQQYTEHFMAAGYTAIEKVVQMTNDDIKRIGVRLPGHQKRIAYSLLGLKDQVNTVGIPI
T2 sequence (P29317 28-206 limits assumed): as the sequence (P29317 28-206 limits assumed) above

Consider “(3-CH3,6,7-OCH3,Benzofuranoic acid)DP(4-CH3-Tyr)A(Hyp)LRG(4-Cl-Phe)PVA-GK(Biotin LC)-CONH2 [Scrambled-147B5, scrambled 135H11-biotinylated (control)]”, for which the “Kd (ITC)” value in assay [1] (N.B. = no binding detected by ITC) is given as “N.B. (ITC)”. Besides, the results for the “binding to EphA2-LBD by ITC (in words)” value in assay [1] (listed as 147B5 scrambled version) and in assay [1] (listed as scrambled version of 147B5) were “no appreciable binding was detected” and “no binding detected”, respectively.
On to `COc1ccc(C[C@H](NC(=O)[C@@H]2CCCN2C(=O)[C@H](CC(=O)O)NC(=O)c2oc3c(OC)c(OC)ccc3c2C)C(=O)N[C@@H](C)C(=O)N2C[C@H](O)C[C@H]2C(=O)N[C@@H](CC(C)C)C(=O)N[C@@H](CCCNC(=N)N)C(=O)NCC(=O)N[C@@H](Cc2ccc(Cl)cc2)C(=O)N2CCC[C@H]2C(=O)N[C@H](C(=O)N[C@@H](C)C(N)=O)C(C)C)cc1` [Scrambled-135H11] ({2Benzofuroyl(3-Me,6,7-diOMe)}-DPY(Me)A[Hyp]LRG[Phe(4-Cl)]PVA-NH2), for which, in assay [2], the “inhibition in DELFIA (in words)” value was “no inhibition”.

B1: Scrambled-135H11 (peptide)
peptide: {2Benzofuroyl(3-Me,6,7-diOMe)}-DP[4‑CH3‑Tyr]A[Hyp]LRG[Phe(4-Cl)]PVA-NH2
For B1, the IC50 in assay [3] was > 10000 nM.

B2: 147B5 (135H11-biotinylated) (peptide)
peptide: LAYPDAVPFRPGK
modifications: N-terminal 3-CH3,6,7-OCH3,Benzofuranoic acid; 4-CH3-Tyr at position 3; Hyp (trans 4-hydroxy-L-proline) at position 8; 4-Cl-Phe at position 9; K(Biotin LC) at position 13 (LC: long 6 atom hydrocarbon chain between the biotin and the amide bond); C-terminal amide (-CONH2)
Regarding B2, the Kd in assay [4] turned out to be 117 nM.

B3: ephrinA1-Fc: dimeric ephrinA1-Fc chimera, positive control (protein)
chain: DRHTVFWNSSNPKFRNEDYTIHVQLNDYVDIICPHYEDHSVADAAMEQYILYLVEHEEYQLCQPQSKDQVRWQCNRPSAKHGPEKLSEKFQRFTPFTLGKEFKEGHSYYYISKPIHQHEDRCLRLKVTVSGKITHSPQAHDNPQEKRLAADDPEVRVLHSIGHS
modifications: left off: Fc, end not stated, kept
notes: dimeric ephrinA1-Fc chimera, positive control
Consider B3, for which the “EphA2 receptor degradation in BxPC3 cells (in words)” value in assay [5] is on record as “nearly complete degradation of the EphA2 receptor”. Further, the “receptor degradation, agonistic effectiveness in cells (in words)” value in assay [6] (at nanomolar concentrations, ref [5],[28],[29],[30],[31],[34]) was “dramatically more effective as an agonist”. Besides, the “EphA2 dimer formation, activation, internalization, degradation (in words)” value in assay [6] (legend of schematic, no reference given) is “can efficiently induce dimer formation and receptor activation, internalization, and degradation”. Further, the “EphA2 receptor degradation in MDA-MB-231 cells (in words)” value in assay [7] is “significant degradation of the EphA2 receptor; also recorded: very effective in causing EphA2 degradation”.
